Source: the domain aggregation screens of Martell et al. (2025)

Test: soluble fraction after stress (log2 fold change); higher = more stays soluble; pooled small domains, quantitative proteomics
Details: stress: 75 degC
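Note: 20 min heating vs room temperature control held 20 min.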

| Sequence | soluble fraction (log2) |
| --- | --- |
| HMSLLTPLEEARIVIEELIIPQKLTLDLLPQNSQIRKLQHEIINHYRLKGISIGDGKNRRVRIYS | -0.204 |
| HMSLMHEESLKNIRRFINSLPESLRTAFTLREQDGLSYEEIGVITETPIGTVRSRIFRAREAILEHIKKEL | -2.39 |
| HMSLMLYVEDVDTAFKKAIELGATEIRPVHDQFYGDRAGTLQDPFGHIWIIGTHKEDVSDEELNNRIGNI | 0.104 |
| HMSLPNNLIEQLQDPEPKARRRAVRRLAATRDPSAIPLLRNVYLQDGDDRVRDAAEAALVQFRAMQHN | -0.112 |
| HMSLPTYVQISEAIARRITAGQWLDGERLPPERTMAAEFGVAVGTLRKALSRLQDQKLLRRLQGSGNYINI | -1.67 |
| HMSLREKNKARTRTAILNAARDLAKQGQWDAITTRQIADAAGVSYQTLYNYYPSKASILVEMLL | -2.03 |
| HMSLSDDIAQTLRQLGFDRDVSETLANDVLPAMPTRQDVIDLLGTLGIEKHVAADFANFVVLN | -0.964 |
| HMSLSEYLSAPVLEGQRNHALFSAVMQAREQGWDEWQIRTTIGAKAEADGLRHAEIAATIRSAMSREITP | -0.314 |
| HMSLSIKINHESVGLRLDQFLQEHYYKQQSRSYVQHAIKEGYILVNGQSVKNGYMLKLDDLIELEAI | -4.5 |
| HMSLSNMIGKNIQWTHVTKTKDAEGNPKTNSETFAGNVRGVKVLNGKPMVVAQDAKGKLHEVEVSEIEAIA | 0.0953 |
| HMSLTEDELFHALTIYANREGINIGATELKYLLTHYARNLGKLIELINQVSQAATMQKKPITIPLIKHS | -0.411 |
| HMSLTGFYNLTFKQADRLSVIDEAGEEVYKQAIAMGSTTKTIDLSALNAGVYFIRIYNGEVIAQEKIVLN | -0.933 |
| HMSLTYTGKFILNHNNIDQSSFNINIYLVNKQTIIQITKPFYGNVLNIKFNEENDLIISPKQFS | -0.369 |
| HMSMDPYTVLGVNKSSTDSQIKNAYKNLAKQHHPDRGGNEAKFKEISTAYEQIKTAEKRQQYDMSQQF | 0.604 |
| HMSMFAQQLKDLRKKIPGLTQTDMAKKLGIAKTTYASYEQGKRTPDIETQNKIADFFNVSLDYLHG | -0.302 |
| HMSMFSEILRTLRKAKGLTQRELAGHLGVTQQMVAKWEKGQSTPGPDQLTRMAELLEVSTDTLLGR | -0.366 |
| HMSMNSWFVEKERDNTRIDKFLNEQMADISRSYIQKLIKDDLVTVDLRPVKANYKVKEGDRVEVTLPEPV | 0.000708 |
| HMSMPTITLQHYKRGSHYYASIIETFRDPVTRKNSSRTLEALGDISEKMKEDPNYLQSLKDRVKALRSD | -0.899 |
| HMSMSLQFLSRRIRLQREKRGLKQHDIAHALQISPQAVSKWERGENAPDIALLRPLAGLLGVSIDWLMGGD | -3.27 |
| HMSNEEEIEGLVSKVLDNNPEIVERIRSGEDKLISYLVGEVMKQSSSSLNPGIVKEIIVNKTI | 0.091 |
| HMSNEITVPDLSGMSLEELETILSDRSLSYEIIDSIYNSTAKKGTVSSQDPLPDAKVKSGRTIYITVVSKL | -1.85 |
| HMSNENIDQDELQAIIQKVLASNQDAVAKYKAGKTAVIGFLIGQVMRQLNKKIDVALAKKTLLVFLEK | -1.42 |
| HMSNETKSAILNFAEKHHDFNIDDLFESLSKSMDINRSSLLWHLFKLVNSNVLIRTGRGMYAKV | -2.62 |
| HMSNEVSYSDFVRSVESDEVNAVTLDGEQIRFVGNDGQTYSVIKPADAQITQLLIDNNVTVRAEQQ | 0.123 |
| HMSNEYLMPNLIGMSWDEAKSKYSQYMTLVPEQEWSEVTKDQIFDQEYPEGRKVKIGTEVTVKVSMGI | -0.654 |
| HMSNFGALLRMRRLEAGLSYRGLAEQSGLARATLVNLEQGLTKPSPLTMRRLASVKALRLTEL | -3.17 |

| Sequence | soluble fraction (log2) |
| --- | --- |
| HMSNFGERLRALRQDRQMTLQQASKVTGVAQSTLSKMENNQLSPTFNLMQKLAIGLGIDMPQLFAPVK | -0.642 |
| HMSNGEWQQGSDGRWWYKFSDGTYPKNKVETIGGKKYGFDSEGWMLANTTKEFSGTTYSFGADGVATS | 0.223 |
| HMSNHYETLGVEQTASVDEIKKAYRRLSLQYHPDRNTTSDAVGKFQKINDAHEILSDKQSRTEYDMQLK | 0.0273 |
| HMSNIQLAANLQRLRKDHHFTQTQFSKKLNISRQAYSNYETGKRIPDLDIIIRIANIYHISLENLL | -0.305 |
| HMSNKYYETILDWFKSQIMSGELKEGDTIPSERELATRFGVSRVPVREALRILEYIGIVSNTADGMTVQKV | -1.72 |
| HMSNLKKRRLEKNLTLDDVGKLVGVSAATISRWESGDIENMRSDKIVKLANALEISPAVILGW | -0.0179 |
| HMSNLLKNILDVLEKEGPLKARKIALLLDSTRTTITHTTINSELYKALDLEGLTKNEQNIWSYVT | 0.145 |
| HMSNLVEVPAVIGRMKEDAITMLISAGLEPAVTYDEYPLVKENLVADQSVAPGQKVEKGSFVTITVSRS | -0.0726 |
| HMSNMESLIGREATVIEMIPAEDVGRVKIDGDEWQAVLAREDDNEPRRDIQVGEKVIIVSYDSIILTVKTK | 0.0742 |
| HMSNNENSILEKLNSFSGKKIKVSHTIGSLAARLDEYPKIKMWLYKRIRENSINEQAYKYLIFIIERKVR | -1.34 |
| HMSNPADDVVDLLRQLRLPHMRAAAPELLATAKAQRWDPAEAIRALLTEELAGRQASSINARRK | -0.477 |
| HMSNPPIRIGKKALHELLTTWLSLLSRDGVAYLVVQKNLGADSLTAWLRDQGFPSEKIASKKGFRIIEVH | -0.315 |
| HMSNRDNPVVLDFKKVKSTEQLDNILEEYIRENFEGYTVKGRMFSSDEGKFIIALALKDDDGKRALVYFDV | -1.04 |
| HMSNRIDKIKLNHWLNIRKTSLDVLNNLLSKHLNHKINFENLENLDEQAIEKISEVLSIPKNKLLINDDVP | -0.219 |
| HMSNTVEDLIDDIGTVTKDSKDKIDAARKAYDGLTEDQKKLVPDSVLKTLTDAEAAYAKLTK | 0.567 |
| HMSNWYGTVVKIQPRPNAQAADTAVVKLLDGSEHRFPVWADHLTTIEVGSRLKKLSGGWDPVLMDPEETF | -0.669 |
| HMSNWYKNNETDQIWWKDTPDSVGEWLFSFDKKQVFNMFADYPHNLTPEQKKIFDEENPEWSDRP | -0.351 |
| HMSNYPYLLRTYEGKLAVFTDDLVQPDLVFDVYVRTLPELDQQQLSRGIRVKTYDELTSMIEDYI | -2.22 |
| HMSPAVEDYLEQIHNLIAQKGYARVVDIAGNLKISQASVTNMIQRMDADGLVVYERYRGVVLTETGRK | -1.28 |
| HMSPDLNEVEEKVFRALNGVESMHVNKLGIELNLPVSELFFTLLELEMKNVVKALPGGMYKL | -2.26 |
| HMSPFYILDEVEAALDDTNLGRLLEIYEELRENSQLLVITHQKRTMEVGDALYGVTMRGDGVSAVISQRLR | 0.306 |
| HMSPKYLELVRWINTQIQEKKLTAGQKMYSENELKEMFGVSRQTVRHAISVLEGEGMIRRVRGSGTYINDN | -2.42 |
| HMSPLALLTPRELDILRAMTAGASNKEIARQFAIAETTVKIHVQHILRKLDVTTRVHAAVMASESGL | -3.05 |
| HMSPPALAVQRDGSNVQISWPGAEEGWRLESSAEPSGAAWDLIAQNPTPVGGRWTVSLTEPTGRRFYRLVK | -0.0804 |
| HMSPSLVEAMRLRMYEMGLNQAKLSELLGVSPSRVSDYLTGRSEPTLKVARDISRKLNIDASIVLG | -1.68 |
| HMSPSQFRSKSLLVEINFASRQMDGEILQGDYAGKRLSELTEAEVQELTAWLKQSDRESFVLLQAYLLRSG | -2.46 |

| Sequence | soluble fraction (log2) |
| --- | --- |
| HMSPSSPNQILGQYPKTKNDIILSSGRYGPYLKYNKKNYSLGNNISVEKLSLEEAVKIIDLKDKK | -0.291 |
| HMSPTDKATVNVYALNVRTGPGTNYKVLGSVIKGTELQVLGSSGKWLKVKYGNREAYVAGWLVK | -2.85 |
| HMSPTEQEKIGLFIKKLREEKNLTQEAFASLLKTSQSAVARIESGNQNITIEQLMKIGEVLNHNIVSI | -0.212 |
| HMSQDPLETYYPQWSAAVKQSNPDAEIIRDTDGKYYVEGMTKNRVAVIYENPHLVRLVNATTNVHVE | 0.0377 |
| HMSQDTLIGRVGVIVIGQARTGSPAQVRVKDGFGQTHYVMAEPDSEGVLKQGEAVLLVSLEGNTFKAILNP | -2.41 |
| HMSQDVLLKRSGDQIEVKITEVGEDYLKYKKKGFENGPDFKINTSDVFMVTFANGEKMMFEES | -0.033 |
| HMSQEAKLAMPVTDLRLSARTLNALELANIRTVRDLVSHTEEQLLELRNFGETALAEVKEKLAALGLRLGM | 0.0588 |
| HMSQESIMPNLVGSTEDEAKAIAVEYGFQLNVISRVNNSQYPAGVIIDQNVDEGVRIKAGYPVGVTIS | -0.237 |
| HMSQIAENNQKYVGTIQKVLVEGTSKNNDDMLTGRTDSNKVVIFEGDKKLIGNMVELKIVSEHMWYLKGEL | -0.0812 |
| HMSQISKLWRPSEDVTEILTRSGMDSEFLEGLIPEFIIYWSERADVLVSYNSKFIEHARLKWAQHSAEIKT | -4.48 |
| HMSQLLHELLAHVLKDRIISGEWPAGSRIMSEHALQERYGVSRGTVRRALAQLVQEGLLVQRKGKGTFVTR | -2.59 |
| HMSQLVTGVLRNLNDISEKIAAGKAVPEMLGRLENMQQMIANLKGNEGLIKSISILTRSAQDALR | -0.484 |
| HMSQPLYWQIRRMVIDHDDANDVLQNTFIKAWSNIGSFRGDAKFSTWLYKIAVNESITFINKKKVQN | -0.44 |
| HMSQPYFELAAADMEALRNALSTIREIESVVLSGKIFHVEVREDLDPGTMNKLAFERGITLTHLVKKKN | -2.89 |
| HMSQRINLNSASIEDMQSLDISNEKIDSIIDYRNRYGNIHNIYELLKIPGITIGDIHSIRNAVTVEIPH | -0.104 |
| HMSQSLSGWAAKDLEVKSGADASYRTVGRLPKGSKVSGKIINGYLHIEFDGSMRYVPVSGISKTE | -0.6 |
| HMSQSYHLADRGQSLGTLDYQAVLVGLATGRLSPDTLSWQEGEAGWVALRQRPEFASGVSAVASL | 0.404 |
| HMSRAHTELEEKLLTMLEENDMTLPMRVISNIASRIEGIIIPEEKILEVLKKSYDRYREHQMD | -0.267 |
| HMSRARSRQTSMLEAVAGLGPARRRALLKQFGGLQGVLRAGIEDLSRAPGIGPALAQAIFEHLHPGA | -0.482 |
| HMSREQARRFYFDTWAKHRASQPLTDLEKIALTVMLLHPEYHSLLDKPDHYVDKDYSPEAGQTNPFLHM | -1.72 |
| HMSRIDRKGLTSQIVNHLSKNPGKNFTLKQFFRNLKLNTHPLKMLAVDVLNKLLDTNFITRNEDGEFFLKA | 0.154 |
| HMSRLMIVTPDGRIMDDVPEFGEVRTTTDVNGRVLVLDRNNVVIGFEMTPREYRREFGRNPF | -1.12 |
| HMSRQAPIGHRIRGRRKDIGMTQNALAKAAGISPSYLNLIEHNRRSIGGGLLMRIAAILDIHPHTL | -2.87 |
| HMSRTLLVYVTGAVRQPGVYELPEGSRFFDAVKAAGDVLPYAVMEDINMAEPLSDGMKIHIPLDPEQ | -0.687 |
